Test results as given in the supplement of paper PMC10567573.

B1: RIPK4 (parent)
chain: VIDLFDEQGLSALHLAAQGRHAQT

Variants of: B1
Assay: protein stability index of a GFP-peptide fusion (GPS, HEK-293T) (PSI 1-6); higher = more stable
Conditions: c terminus: a fixed tail appended
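Further: lentivirally expressed fusions sorted by FACS into six bins by GFP to DsRed ratio, PSI derived from sequencing read proportions per bin multiplied by bin number.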

Compared with L10F, L10V is higher in protein stability index: 2.83 for the first, 2.97 for the second.

Compared with L10G, L10S is higher in protein stability index: 3.6 for the first, 3.76 for the second.

Going from L10M to L10N, the protein stability index rises from 3.04 to 3.83.

Going from L10C to L10A, the protein stability index rises from 3.2 to 3.33.

Compared with L10D, L10Q is lower in protein stability index: 3.93 for the first, 3.25 for the second.

Going from L10E to L10H, the protein stability index falls from 4.48 to 3.19.

Compared with L10K, L10R is lower in protein stability index: 3.31 for the first, 3.23 for the second.

Going from L10W to L10I, the protein stability index rises from 2.23 to 2.67.

Going from L10P to L10Y, the protein stability index falls from 3.63 to 2.75.

Going from L10T to F5Y, the protein stability index rises from 3.08 to 3.22.

First: F5R
Second: F5L
The protein stability index of the first is higher: 3.64 for the first, 2.95 for the second.

First: F5V
Second: F5H
The protein stability index of the first is lower: 3.39 for the first, 3.9 for the second.

Going from F5A to F5Q, the protein stability index falls from 4.21 to 3.91.

Going from F5S to F5T, the protein stability index rises from 3.67 to 3.94.

Going from F5E to F5D, the protein stability index falls from 4.6 to 4.18.

First: F5C
Second: F5K
The protein stability index of the first is lower: 3.08 for the first, 4.16 for the second.

First: F5P
Second: F5G
The protein stability index of the first is higher: 4.81 for the first, 3.86 for the second.

Going from F5W to F5M, the protein stability index rises from 2.44 to 2.78.

First: F5I
Second: F5N
The protein stability index of the first is lower: 2.89 for the first, 2.98 for the second.

First: G9F
Second: G9K
The protein stability index of the first is lower: 1.61 for the first, 2.56 for the second.

Going from G9R to G9A, the protein stability index rises from 2.4 to 2.76.

Compared with G9D, G9M is lower in protein stability index: 3.16 for the first, 1.93 for the second.

First: G9V
Second: G9T
The protein stability index of the first is lower: 1.66 for the first, 2.25 for the second.

Going from G9E to G9S, the protein stability index falls from 3.13 to 2.68.

Going from G9L to G9C, the protein stability index rises from 2.07 to 2.19.

Compared with G9H, G9I is lower in protein stability index: 2.77 for the first, 1.94 for the second.

Compared with G9Q, G9W is lower in protein stability index: 2.75 for the first, 1.69 for the second.

Compared with G9Y, G9N is higher in protein stability index: 1.6 for the first, 3.41 for the second.

Compared with G9P, L13C is lower in protein stability index: 3.2 for the first, 2.22 for the second.

Going from L13A to Q8F, the protein stability index falls from 3.38 to 2.05.

Going from Q8I to Q8M, the protein stability index rises from 1.46 to 2.08.

First: Q8G
Second: Q8S
The protein stability index of the first is higher: 3.12 for the first, 2.65 for the second.

Going from Q8Y to Q8E, the protein stability index rises from 2.25 to 2.98.

First: Q8N
Second: Q8W
The protein stability index of the first is higher: 2.86 for the first, 1.45 for the second.

First: Q8A
Second: Q8L
The protein stability index of the first is higher: 2.73 for the first, 1.66 for the second.

Going from Q8P to Q8T, the protein stability index falls from 3.22 to 2.65.

Compared with Q8K, Q8D is higher in protein stability index: 2.58 for the first, 3.07 for the second.

Going from Q8R to Q8C, the protein stability index falls from 2.82 to 1.76.

First: Q8H
Second: Q8V
The protein stability index of the first is higher: 2.61 for the first, 2.53 for the second.

Compared with D6S, D6V is higher in protein stability index: 2.57 for the first, 3.75 for the second.

Going from D6T to D6G, the protein stability index falls from 2.15 to 1.77.

First: D6Q
Second: D6P
The protein stability index of the first is lower: 2.13 for the first, 3.13 for the second.

First: D6H
Second: D6M
The protein stability index of the first is higher: 2.06 for the first, 1.97 for the second.

Going from D6R to D6I, the protein stability index rises from 2.04 to 4.12.

Compared with D6Y, D6E is higher in protein stability index: 1.63 for the first, 2.71 for the second.

Compared with D6C, D6W is higher in protein stability index: 2.39 for the first, 2.55 for the second.

Going from D6K to D6N, the protein stability index rises from 1.81 to 1.96.

Compared with D6F, D6A is lower in protein stability index: 2.33 for the first, 1.91 for the second.

First: A12V
Second: A12R
The protein stability index of the first is lower: 1.99 for the first, 3.12 for the second.

First: A12W
Second: A12M
The protein stability index of the first is lower: 2.12 for the first, 2.46 for the second.

Going from A12D to A12L, the protein stability index falls from 3.21 to 1.98.

First: A12G
Second: A12P
The protein stability index of the first is lower: 2.39 for the first, 3.25 for the second.

Compared with A12S, A12F is lower in protein stability index: 2.96 for the first, 2.05 for the second.

Compared with A12H, A12E is higher in protein stability index: 2.6 for the first, 3.54 for the second.

Compared with A12Q, A12T is lower in protein stability index: 3.29 for the first, 2.82 for the second.

Compared with A12K, A12Y is lower in protein stability index: 3.5 for the first, 2.54 for the second.

Compared with A12N, A12I is lower in protein stability index: 3.1 for the first, 1.91 for the second.

First: A12C
Second: E7C
The protein stability index of the first is higher: 2.36 for the first, 1.73 for the second.

Going from E7M to E7W, the protein stability index rises from 1.1 to 1.98.

First: E7K
Second: E7G
The protein stability index of the first is lower: 1.86 for the first, 2.01 for the second.

Going from E7Q to E7R, the protein stability index falls from 2.35 to 1.98.

First: E7N
Second: E7F
The protein stability index of the first is higher: 2.36 for the first, 1.68 for the second.

Going from E7P to E7H, the protein stability index rises from 2 to 2.17.

First: E7D
Second: E7A
The protein stability index of the first is higher: 2.73 for the first, 2.23 for the second.

Going from E7S to E7V, the protein stability index falls from 2.73 to 2.32.

First: E7T
Second: E7I
The protein stability index of the first is higher: 2.45 for the first, 2.2 for the second.

Going from E7Y to E7L, the protein stability index rises from 1.48 to 1.92.

Compared with S11N, S11R is lower in protein stability index: 2.95 for the first, 2.03 for the second.

Compared with S11T, S11V is lower in protein stability index: 2.63 for the first, 2.12 for the second.

Going from S11A to S11P, the protein stability index rises from 2.79 to 2.95.

Compared with S11F, S11W is higher in protein stability index: 2.43 for the first, 2.52 for the second.

Going from S11L to S11Y, the protein stability index falls from 2.36 to 2.31.

Going from S11K to S11M, the protein stability index falls from 2.65 to 2.18.

Compared with S11G, S11C is lower in protein stability index: 2.94 for the first, 2.63 for the second.

Compared with S11Q, S11E is higher in protein stability index: 2.95 for the first, 3.11 for the second.

First: S11D
Second: S11H
The protein stability index of the first is higher: 3.04 for the first, 2.51 for the second.

First: S11I
Second: L4G
The protein stability index of the first is lower: 2.13 for the first, 3.89 for the second.

Going from L4Q to L4P, the protein stability index falls from 3.98 to 3.73.

Compared with L4V, L4T is higher in protein stability index: 3.26 for the first, 3.79 for the second.

Going from L4S to L4M, the protein stability index falls from 3.94 to 3.11.

First: L4K
Second: L4W
The protein stability index of the first is higher: 3.92 for the first, 2.85 for the second.

First: L4R
Second: L4H
The protein stability index of the first is lower: 3.34 for the first, 3.81 for the second.

First: L4I
Second: L4N
The protein stability index of the first is lower: 2.86 for the first, 3.12 for the second.

In the case of L4Y, the protein stability index is reported as 3.52.
